Measured values from US20220313819A1, “COMBINATION THERAPY FOR THE TREATMENT OF SOLID AND HEMATOLOGICAL CANCERS” (Arch Oncology, Inc., priority 2019, published 2022).

B1: VLX9 IgG2 (xi): chimeric VLX9 anti-CD47 mAb, human IgG2 (antibody)
heavy: QVQLQQFGAELAKPGASVQMSCKASGYTFTNYWIHWVKQRPGQGLEWIGYTDPRTDYTEYNQKFKDKATLAADRSSSTAYMRLSSLTSEDSAVYYCAGGGRVGLGYWGHGSSVTVSSASTKGPSVFPLAPCSRSTSESTAALGCLVKDYFPEPVTVSWNSGALTSGVHTFPAVLQSSGLYSLSSVVTVPSSNFGTQTYTCNVDHKPSNTKVDKTVERKCCVECPPCPAPPVAGPSVFLFPPKPKDTLMISRTPEVTCVVVDVSHEDPEVQFNWYVDGVEVHNAKTKPREEQFNSTFRVVSVLTVVHQDWLNGKEYKCKVSNKGLPAPIEKTISKTKGQPREPQVYTLPPSREEMTKNQVSLTCLVKGFYPSDIAVEWESNGQPENNYKTTPPMLDSDGSFFLYSKLTVDKSRWQQGNVFSCSVMHEALHNHYTQKSLSLSPGK
light: DVFMTQTPLSLPVSLGDQASISCRSSQNIVQSNGNTYLEWYLQKPGQSPKLLIYKVFHRFSGVPDRFSGSGSGTDFTLKISRVEAEDLGVYYCFQGSHVPWTFGGGTKVEIKRTVAAPSVFIFPPSDEQLKSGTASVVCLLNNFYPREAKVQWKVDNALQSGNSQESVTEQDSKDSTYSLSSTLTLSKADYEKHKVYACEVTHQGLSSPVTKSFNRGEC
B2: VLX9 IgG (murine): murine VLX9 anti-CD47 antibody (antibody, V domains shown)
VH: QVQLQQFGAELAKPGASVQMSCKASGYTFTNYWIHWVKQRPGQGLEWIGYTDPRTDYTEYNQKFKDKATLAADRSSSTAYMRLSSLTSEDSAVYYCAGGGRVGLGYWGHGSSVTVSS
VL: DVFMTQTPLSLPVSLGDQASISCRSSQNIVQSNGNTYLEWYLQKPGQSPKLLIYKVFHRFSGVPDRFSGSGSGTDFTLKISRVEAEDLGVYYCFQGSHVPWTFGGGTKVEIK

Tests used:
hRBCs = experiment: Hemagglutination of washed human red blood cells; type: cell-based
Description: Hemagglutination of hRBCs was assessed following incubation of hRBCs with various concentrations of chimeric and humanized VLX4, VLX8, and VLX9 mAbs in vitro essentially as described by Kikuchi et al. Biochem Biophys Res. Commun (2004) 315:912-918. Blood was obtained from healthy donors, diluted (1:50) in PBS/1 mM EDTA/BSA and washed 3 times with PBS/EDTA/BSA. hRBCs were added to U-bottomed 96 well plates with equal volumes of the antibodies (75 μl of each) and incubated for 3 hrs at 37° C. and overnight at 4° C.

Jurkat cells [1] = experiment: Cell death by soluble mAb, annexin V / 7-AAD; type: cell-based, human; details: 1 μg/ml, 24 hrs
Description: Induction of cell death by soluble anti-CD47 mAbs is measured in vitro (Manna et al. (2003) J. Immunol. 107 (7): 3544-53, Kikuchi et al. Biochem Biophys Res. Commun. 315: 912-8, 2004), Pettersen et al. J. Immuno. 162: 7031-7040, 1999), Manna et al. Cancer Research, 64: 1026-1036, 2004). For the in vitro cell death assay, 1×10^5 transformed human T cells (Jurkat cells) were incubated with soluble humanized VLX4, VLX8, and VLX9 CD47 mAbs (1 μg/ml) for 24 hrs at 37° C. As cell death occurs, mitochondrial membrane potential is decreased, the inner leaflet of the cell membrane is inverted, exposing phosphatidylserines (PS), and propidium iodide (PI) or 7-aminoactinomycin D (7-AAD) is able to incorporate into nuclear DNA. In order to detect these cellular changes, cells were then stained with fluorescently labelled annexin V and PI or 7-aminoactinomycin D (7-AAD) (BD Biosciences) and the signal detected using an Accuri C6 flow cytometer (BD Biosciences). The increase in PS exposure is determined by measuring the percent increase in annexin V signal and the percent of dead cells by measuring the percent increase in PI or 7-AAD signal. Annexin V positive (annexin V^+) or annexin V positive/7-AAD negative (annexin V^+/7-AAD^−) cells are observed in early stages of cell death and annexin V positive/7-AAD positive (annexin V^+/7-AAD^+) cells are dead cells. […]

Jurkat cells [2] = experiment: Phagocytosis of tumor cells by human macrophages; type: cell-based; details: 1 μg/ml mAb
Description: Human derived macrophages were derived from leukapheresis of healthy human peripheral blood and incubated in AIM-V media (Life Technologies) for 7-10 days. For the in vitro phagocytosis assay, macrophages were re-plated at a concentration of 1×10^4 cells per well in 100 ul of AIM-V media in a 96-well plate and allowed to adhere for 24 hrs. Once the effector macrophages adhered to the culture dish, the target human cancer cells (Jurkat) were labelled with 1 μM 5(6)-Carboxyfluorescein diacetate N-succinimidyl ester (CFSE; Sigma Aldrich) and added to the macrophage cultures at a concentration of 5×10^4 cells in […] of AIM-V media (5:1 target to effector ratio). VLX4, VLX8, and VLX9 CD47 mAbs (1 μg/ml) were added immediately upon mixture of target and effector cells and allowed to incubate at 37° C. for 2-3 hours. After 2-3 hrs, all non-phagocytosed cells were removed and the remaining cells washed three times with phosphate buffered saline (PBS; Sigma Aldrich). Cells were then trypsinized, collected into microcentrifuge tubes, and incubated in 100 ng of allophycocyanin (APC) labelled CD14 antibodies (BD Biosciences) for 30 minutes, washed once, and analyzed by flow cytometry (Accuri C6; BD Biosciences) for the percentage of CD14^+ cells that were also CFSE^+ indicating complete phagocytosis.

[3] = biological target: T1, His-CD47 (recombinant human CD47) (Homo sapiens, UniProt Q08722); experiment: Solid-phase CD47 ELISA at pH 6 or pH 8; type: binding; details: pH 6.0 versus pH 8.0
T1 construct: His; purchased AcroBiosystems
Description: Binding by soluble anti-CD47 mAbs to immobilized recombinant human CD47 and to human CD47 expressed on cells was measured in vitro. For the in vitro binding to recombinant CD47, His-CD47 (AcroBiosystems) was adsorbed to high-binding microtiter plates overnight at 4° C. The wells were washed and varying concentrations of anti-CD47 mAbs were added to the wells in buffers with a of either pH 6 or pH 8 for 1 hour. The wells were washed and then incubated with HRP-labelled secondary antibody for 1 hour at pH 6 or pH 8 followed by addition of peroxidase substrate. The apparent affinities were calculated using non-linear fit model (Graphpad Prism).

Molecule | HA hRBC (hRBCs; hemagglutination, chimeric (xi) mAbs, Table 1) | visible hemagglutination of hRBCs (hRBCs; result in words, mAb concentrations from 50 μg/ml down) | PS exposure and cell death of Jurkat cells (annexin V^+, annexin V^+/7-AAD^−, annexin V^+/7-AAD^+) (Jurkat cells [1]) | phagocytosis of Jurkat cells by human macrophages (Jurkat cells [2]) | pH dependent binding to His-CD47 [3]
B1 | Yes | caused visible hemagglutination | induced increased PS exposure and cell death | increased phagocytosis | –
B2 | – | – | – | – | did not display pH dependence
